# B1: CP2c (TFCP2), endogenous human (natural protein, human (endogenous in MDA-MB-231), UniProt Q12800-1 1-502, looked up)
# chain: MAWALKLPLADEVIESGLVQDFDASLSGIGQELGAGAYSMSDVLALPIFKQEESSLPPDNENKILPFQYVLCAATSPAVKLHDETLTYLNQGQSYEIRMLDNRKLGELPEINGKLVKSIFRVVFHDRRLQYTEHQQLEGWRWNRPGDRILDIDIPMSVGIIDPRANPTQLNTVEFLWDPAKRTSVFIQVHCISTEFTMRKHGGEKGVPFRVQIDTFKENENGEYTEHLHSASCQIKVFKPKGADRKQKTDREKMEKRTPHEKEKYQPSYETTILTECSPWPEITYVNNSPSPGFNSSHSSFSLGEGNGSPNHQPEPPPPVTDNLLPTTTPQEAQQWLHRNRFSTFTRLFTNFSGADLLKLTRDDVIQICGPADGIRLFNALKGRMVRPRLTIYVCQESLQLREQQQQQQQQQQKHEDGDSNGTFFVYHAIYLEELTAVELTEKIAQLFSISPCQISQIYKQGPTGIHVLISDEMIQNFQEEACFILDTMKAETNDSYHIILK
# notes: transcription factor CP2c (TFCP2, LBP-1c), endogenous in the human breast cancer line MDA-MB-231; both are human cells; also called α-CP2; LSF; source: endogenous, MDA-MB-231 nuclear and cytosolic lysate
# Target: the molecule itself
# Experiment: cross-linking + co-IP; DSP XL-WB: nuclear extracts of MDA-MB-231 cells, Benzonase, 2 mM DSP 30 min at room temperature, IP with CP2c, CP2b or PIAS1 antibodies, sequential Western blot with and without DTT
protein,measurement,value
B1,stoichiometry N,4
